Patent publication US20240287188A1 (KUMHO HT, published 2024)
Substitutions are numbered along the chain they refer to.

B1: humanized anti-ICAM-1 antibody H17L4 (VH17 + VL4), human IgG4/kappa (antibody, V domains shown)
VH: QVQLVQSGAEVKKPGASVKISCKGSGYTFTDYALHWVRQAPGQRLEWMGVISTYSGNTDYNQKFRGRATITVDTSASTAYMELSSLRSEDTAVYYCARSLYFGSSGFDYWGQGTALTVSS
VL: DVVLTQTPLSSPVTLGQPASISCRSSQTLVYRNGNTYLHWYQQRPGQPPRLLIYKVSNRFSGVPDRFSGSGAGTDFTLKISRVEAEDVGVYFCSQNTHFPYTFGGGTKLEIKT
notes: The Arg at the VL/CL junction is in neither entry; also called DNP007; DNP007 antibody (H17L4 antibody)
B2: humanized anti-ICAM-1 antibody H17L1 (VH17 + VL1), human IgG4/kappa (antibody, V domains shown)
VH: B1 VH
VL: B1 VL with T7S, S11L, P48S, A72S
B3: chimeric anti-ICAM-1 antibody SI9 (mouse SI9 variable regions, human IgG4/kappa constant regions) (antibody)
heavy: QVQLQQSGAELVRPGVSVKISCKGSGYTFTDYALHWVKQSHAKSLEWIGVISTYSGNTDYNQKFRGKATMTVDKSSTTAYLELARLTSEDSAIHYCARSLYFGSSGFDYWGQGTALTVSS
light: DVVLTQTPLSLPVNLGDQASISCRSSQTLVYRNGNTYLHWYLQKAGQSPKLLIYKVSNRFSGVPDRFSGSGSGTDFTLKISRVEAEDLGVYFCSQNTHFPYTFGGGTKIKR
notes: the hinge lies in the heavy chain; also called chimeric antibody SI9; SI9 Chimeric; not shown: human IgG4 heavy chain constant region, GenBank AIC59040.1 (printed), hinge 'CPSCP' modified to 'CPPCP' (position not pr); human kappa light chain constant region, GenBank AAA58989.1 (printed)
B4: humanized anti-ICAM-1 antibody H17L3 (VH17 + VL3), human IgG4/kappa (antibody, V domains shown)
VH: B1 VH
VL: B1 VL with Q42L, P45A
notes: The Arg at the VL/CL junction is in neither entry
B5: humanized anti-ICAM-1 antibody H4L3 (VH4 + VL3), human IgG4/kappa (antibody, V domains shown)
VH: B1 VH with I20V, G24A, M48I, A68V, I70M, V72R, S77T, M81L
VL: B1 VL with Q42L, P45A
notes: as for B4
B6: humanized anti-ICAM-1 antibody H5L3 (VH5 + VL3), human IgG4/kappa (antibody, V domains shown)
VH: B1 VH with G24A, A68V, T74K, S77T
VL: B1 VL with Q42L, P45A
notes: as for B4

The molecules below were run against T1, ICAM-1 protein antigen (R&D System) (human, UniProt P05362 28-480) (assay: BLI (Octet), antibody coupled to AR2G amine-reactive sensor, ICAM-1 in solution at 5 concentrations).
T1 construct: The assay paragraphs say only 'ICAM-1 (R&D System)'; also called antigen ICAM-1; ICAM-1 antigen
Procedure: The Octet system (ForteBio) was used to compare the affinity of the H17L1 and H17L4 humanized antibodies to the antigen with the parent antibody. Each of three antibodies was attached to the amine reactive Bio-sensor AR2G (ForteBio), and 5 different concentrations of ICAM-1 antigen solution were added to induce antigen/antibody reactions to occur. Using the antigen/antibody reaction results, the binding constant (Kon) and the dissociation constant (Koff) were measured, and the affinity (KD) was calculated, and the results are shown in Table 10 and FIG. 8: […]

T1 sequence (P05362 28-480 limits assumed): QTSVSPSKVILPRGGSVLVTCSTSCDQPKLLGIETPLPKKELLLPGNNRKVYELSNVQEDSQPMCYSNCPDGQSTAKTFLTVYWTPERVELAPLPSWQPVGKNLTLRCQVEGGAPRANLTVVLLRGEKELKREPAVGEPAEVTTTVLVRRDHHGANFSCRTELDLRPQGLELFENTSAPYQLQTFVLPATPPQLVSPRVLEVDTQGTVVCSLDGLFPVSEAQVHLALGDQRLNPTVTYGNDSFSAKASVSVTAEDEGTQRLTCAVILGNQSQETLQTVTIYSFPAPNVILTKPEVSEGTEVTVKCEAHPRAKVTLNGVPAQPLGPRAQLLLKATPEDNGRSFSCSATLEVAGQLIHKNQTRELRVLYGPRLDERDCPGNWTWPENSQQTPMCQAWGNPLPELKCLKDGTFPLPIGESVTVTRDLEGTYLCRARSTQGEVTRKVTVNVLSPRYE

Kd [nM] | koff [s⁻¹] | kon [M⁻¹ s⁻¹] | Molecule
3.62 | 0.000929 | 256000 | B1
3.43 | 0.000853 | 249000 | B2
10.3 | 0.00169 | 165000 | B3

What follows are molecules tested against T1, ICAM-1 protein antigen (R&D System) (assay: ELISA, ICAM-1 coated 100 ng/well, anti-human Ig-HRP).
Procedure: The antigen ICAM-1 (ICAM-1; R&D System) was coated on a 96 well plate at 100 ng per well, followed by blocking. The amount of the primary antibody was serially diluted twice from 80 ng/ml and bound for 1 hour at 37° C. and a secondary antibody diluted 1:10000 with goat anti-Human Ig-HRP conjugate (Jackson ImmunoResearch) was combined at 37° C. for 30 minutes. Each step was washed three times and reacted with TMB (3,3′,5,5′-Tetramethylbenzidine). After the reaction was stopped by treatment with 1N H₂SO₄ solution in the same amount (100 ul) as the TMB solution, the OD value was measured at 450 nm.

OD 450 nm at 2.5 ng/ml antibody | OD 450 nm at 5 ng/ml antibody | OD 450 nm at 10 ng/ml antibody | OD 450 nm at 20 ng/ml antibody | OD 450 nm at 40 ng/ml antibody | OD 450 nm at 80 ng/ml antibody | Molecule
0.135 OD (450 nm) | 0.201 OD (450 nm) | 0.344 OD (450 nm) | 0.567 OD (450 nm) | 0.848 OD (450 nm) | 1.2 OD (450 nm) | B4
0.115 OD (450 nm) | 0.189 OD (450 nm) | 0.305 OD (450 nm) | 0.52 OD (450 nm) | 0.832 OD (450 nm) | 1.23 OD (450 nm) | B5
0.136 OD (450 nm) | 0.236 OD (450 nm) | 0.349 OD (450 nm) | 0.637 OD (450 nm) | 0.983 OD (450 nm) | 1.24 OD (450 nm) | B1
0.128 OD (450 nm) | 0.208 OD (450 nm) | 0.35 OD (450 nm) | 0.592 OD (450 nm) | 0.862 OD (450 nm) | 1.25 OD (450 nm) | B6
0.119 OD (450 nm) | 0.186 OD (450 nm) | 0.297 OD (450 nm) | 0.506 OD (450 nm) | 0.802 OD (450 nm) | 1.11 OD (450 nm) | B2
0.118 OD (450 nm) | 0.182 OD (450 nm) | 0.298 OD (450 nm) | 0.473 OD (450 nm) | 0.724 OD (450 nm) | 1.14 OD (450 nm) | B3

These molecules were tested against ICAM-1 expressed on the surface of the prostate cancer cell line Du145 (human) (UniProt P05362) (assay: flow cytometry on Du145 cells expressing ICAM-1).
Chain of ICAM-1 expressed on the surface of the prostate cancer cell line Du145 (human) (P05362 28-532): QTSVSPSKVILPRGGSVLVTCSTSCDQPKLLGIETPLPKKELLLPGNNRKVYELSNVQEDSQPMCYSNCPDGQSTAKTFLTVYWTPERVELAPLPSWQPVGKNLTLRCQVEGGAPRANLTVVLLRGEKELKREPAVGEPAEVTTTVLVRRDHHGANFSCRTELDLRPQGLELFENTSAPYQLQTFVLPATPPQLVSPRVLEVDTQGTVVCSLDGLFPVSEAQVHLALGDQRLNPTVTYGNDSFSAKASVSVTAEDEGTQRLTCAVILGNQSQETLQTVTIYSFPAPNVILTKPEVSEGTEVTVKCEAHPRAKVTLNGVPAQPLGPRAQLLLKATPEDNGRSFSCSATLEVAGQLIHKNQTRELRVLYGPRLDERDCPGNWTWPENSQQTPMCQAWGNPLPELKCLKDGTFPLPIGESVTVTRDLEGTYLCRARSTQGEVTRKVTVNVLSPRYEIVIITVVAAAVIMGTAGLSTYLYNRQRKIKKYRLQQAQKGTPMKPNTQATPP

% Gated (marker M1) [%] | Mean (marker All) | Mean (marker M1) | Molecule
0.58 | 3.9 | 91 | Negative control
